Reference: PMC4470285, “A cell cycle-controlled redox switch regulates the topoisomerase IV activity” (Genes & Development, 2015)
Blank lines part the entries; values can stand above or below the molecule they belong to.

Key:
[1] = molecular target: NstA(C8Y)-GFP (C. crescentus); assay: non-reducing SDS-PAGE with immunoblot; GFP fusions expressed from the xylX locus in C. crescentus; reducing against non-reducing SDS-PAGE; disulfide-linked dimer; also synchronized cells at 0 and 60 min
[2] = molecular target: NstA-seGFP (C. crescentus); assay: not stated; cells overproducing NstA-seGFP, with or without 7.5 uM NEM (Supplemental Fig. S11B)
[3] = molecular target: the molecule itself; assay: non-reducing SDS-PAGE with immunoblot; GFP fusions expressed from the xylX locus in C. crescentus; reducing against non-reducing SDS-PAGE; disulfide-linked dimer; also synchronized cells at 0 and 60 min

stoichiometry N [1]: 2
Molecule: NstA(C8Y)-GFP (natural protein)

stoichiometry N [2]: 2
Molecule: NstA-seGFP (natural protein)

B1: NstA-GFP (natural protein, C. crescentus, UniProt A0A0H3CC90 1-66, looked up)
chain: MQVFTFFCVESDGSVPRFDVTPCADDAAARVRAFELLDMHHRCDFVEVWRGAQRVFDVFAQQVAAA
notes: NstA (CCNA_03091), C. crescentus, predicted protein of 66 residues; also called functional C-terminal GFP version of wild-type NstA; xylX::Pxyl-nstA-gfp; source: wild-type C. crescentus, expressed from the xylX locus on the chromosome, in lysate; not shown: GFP, C-terminal, kept
stoichiometry N [3]: 2
